From patent WO2008121160A2 (dated 2008)

Target: T1, CD5-His-GST (human, UniProt P06127 25-372)
T1 construct: Expressed in 293T cells, purified by nickel chromatography; also called Recombinant CD5; Tagged CD5 antigen; not shown: C-terminal Factor Xa site; 6X His tag; GST protein
T1 sequence: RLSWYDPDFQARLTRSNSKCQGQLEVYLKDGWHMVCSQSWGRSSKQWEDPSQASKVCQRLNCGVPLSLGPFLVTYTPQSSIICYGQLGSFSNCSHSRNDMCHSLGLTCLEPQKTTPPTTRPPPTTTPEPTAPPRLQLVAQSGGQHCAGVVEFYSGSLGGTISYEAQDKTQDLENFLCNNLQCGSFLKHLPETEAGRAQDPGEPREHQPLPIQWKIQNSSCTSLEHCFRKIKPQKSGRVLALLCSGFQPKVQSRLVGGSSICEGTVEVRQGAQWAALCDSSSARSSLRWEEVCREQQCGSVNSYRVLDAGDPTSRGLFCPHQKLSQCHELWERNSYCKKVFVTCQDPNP
Experiment: Biacore (SPR), global Langmuir fits

Kd: ~1.5 nM
B1: 5D7_H0L0_IgG1_WT (antibody, V domains shown)
VH: QVTLKESGPGILKPSQTLSLTCSFSGFSLSTSGMGVGWIRQPSGKGLEWLAHIWWDDDVYYNPSLKNQLTISKDASRDQVFLKITNLDTADTATYYCVRRRATGTGFDYWGQGTTLTVSS
VL: NIVMTQSHKFMSTSVGDRVSIACKASQDVGTAVAWYQQKPGQSPKLLIYWTSTRHTGVPDRFTGSGSGTDFTLTITNVQSEDLADYFCHQYNSYNTFGSGTRLELKR
notes: also called chimeric 5D7; H0L0 5D7
